Target: full-length human LRP1 (low-density lipoprotein receptor-related protein 1) (human)
Assay: ELISA; full-length human LRP1 (5 nM) coated on microtiter plates; biotinylated ADAMTS-5-2 (6 nM) with or without antibodies or RAP (each 100 nM); detected by AP-conjugated streptavidin; TNC buffer, 2 h, room temperature; bound amount as % of that without antibodies or RAP

- percent inhibition of ADAMTS-5 binding to LRP1 at 100 nM: 75%
Substance: receptor-associated protein (RAP) (from UniProt P30533 35-357) (natural protein)
